Data set [1] addresses T1, thrombin (Amersham Biosciences) (human, UniProt P00734;P00734 315-363;364-622). The data set is described as follows: filter binding.
Data set [2] addresses T1, thrombin (Amersham Biosciences). Put plainly: filter binding. This is another data set of the same source.

Read-outs that look alike come from different tables or passages of the source.

Consider GTCTCTTGTGTGACTCTGGTAAC (ssDNA) [P8 ssDNA control], for which, in data set [1], the binding result was “no binding”.

In the case of GGACUUCGGUCC (structured_RNA) [H1 RNA hairpin control], the binding result in data set [2] is on record as “no binding”.
